From publication PMC139967

Molecular target: T701-Myo1c (neck-tail fragment of bullfrog myosin-1c, amino acids 701-1028) (bullfrog) (UniProt Q92002)
Test: SDS-PAGE gel scanning

Sequence of T701-Myo1c (neck-tail fragment of bullfrog myosin-1c, amino acids 701-1028) (bullfrog) (Q92002 701-1028): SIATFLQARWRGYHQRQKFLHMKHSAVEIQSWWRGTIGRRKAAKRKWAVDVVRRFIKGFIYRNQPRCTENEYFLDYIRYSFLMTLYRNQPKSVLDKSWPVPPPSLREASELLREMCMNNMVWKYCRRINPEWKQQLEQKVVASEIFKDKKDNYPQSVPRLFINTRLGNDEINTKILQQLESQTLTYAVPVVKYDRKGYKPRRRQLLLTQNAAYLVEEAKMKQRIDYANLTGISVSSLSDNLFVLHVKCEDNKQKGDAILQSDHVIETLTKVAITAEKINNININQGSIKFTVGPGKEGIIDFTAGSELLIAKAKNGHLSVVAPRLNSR

stoichiometry N (calmodulins per T701-Myo1c): 2.6
Substance: Xenopus calmodulin (from UniProt P0DP33 1-149) (natural protein)
